Data as given in PMC4148453.
Where “and” joins values, the source holds several entries; their conditions need not be identical. Identical values can stand only once.

Tests used:
Assay in all cases: EMSA
Details in all cases: 10 mM Tris-Cl pH 8.0, 1 mM DTT, 10% glycerol, 5 mM MgCl2, 10 mM KCl, with 50 mM acetyl phosphate when indicated; EMSA 30 min at 37 C; footprint at room …
[1] = tested on: 6His-BfmR (Pseudomonas aeruginosa MPAO1)
[2] = tested on: 6His-BfmR D55A (Pseudomonas aeruginosa MPAO1)
[3] = tested on: 6His-BfmR (Pseudomonas aeruginosa MPAO1); remark: listed apart in the source

## bfmR promoter
[1]
  Kd: < 400 nM
[2]
  Kd: > 600 nM
[3]
  Kd: 200 nM and > 600 nM
